# Assays:
# Details in all cases: both partners purified
# [1] = biological target: T1, recombinant SARS-CoV-2 S1 protein (Kactus Biosystems) (SARS-CoV-2, original wild type …, UniProt P0DTC2); assay: SPR
# [2] = biological target: T1, recombinant SARS-CoV-2 S1 protein …; assay: SPR; remark: listed apart in the source
# [3] = biological target: SARS-CoV-2 S1-His protein (SARS-CoV-2); assay: ELISA
# [4] = biological target: SARS-CoV-2 S1-hFc protein (SARS-CoV-2); assay: ELISA
binder,measurement,setting,value
"2B11 monoclonal antibody (full-length human IgG1) (antibody, V domains shown) VH: EVQLVESGGGLVQPGGSLRLSCAASEITVSSNYMNWVRQAPGKGLEWVSVIYSGGTTYYADSVKGRFTISRDNSENTLYLQMNSLRAEDTAVYYCARDLMEVGGMDVWGQGTTVTVSS VL: LPVLTQPPSASGTPGQRVTISCSGSSSNVENDNVNWFQQQVPGSTPKLVIYNDRLRPSGVPDRFSGSKSGTSAYLAISGLQSEDEADYYCVAWDASLQSYVFGTGTKVTVL",Kd,[1],4.76 nM
same,Kd,[2],4.67 nM
same,EC50,[3],0.051 nM
same,IC50,[4],2.79 nM

# From publication PMC8315086 (Cell Discovery, 2021)
